Patent US9005614B2, “PRLR-specific antibody and uses thereof” (Novartis AG, priority 2006, dated 2015)
Residue numbers refer to the chain shown, from its start. Each block holds one molecule with its values, some of them ahead of it.

What was measured:
cynomolgus PRLR ECD = biological target: T1, cynomolgus PRLR ECD (Macaca fascicularis, UniProt A0A2K5WXK1); assay: Biacore kinetic titration, antibody captured on Protein A/G; type: binding; conditions: Table 9, Cyno PRLR ECD; unit not given
T1 construct: antibodies against human and cynomolgus PRLR ECD
T1 sequence (A0A2K5WXK1 25-234): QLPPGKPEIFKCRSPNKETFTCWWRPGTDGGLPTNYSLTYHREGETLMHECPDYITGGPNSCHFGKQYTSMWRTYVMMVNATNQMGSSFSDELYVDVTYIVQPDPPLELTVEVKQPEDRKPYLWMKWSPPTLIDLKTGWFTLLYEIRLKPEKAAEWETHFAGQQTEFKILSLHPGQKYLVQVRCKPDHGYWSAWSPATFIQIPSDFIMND
Procedure: (§1) Affinity of the chimerized and HUMAN ENGINEERED™ antibodies determined by Biacore analysis. Briefly, a CM5 sensor chip (Biacore) immobilized with Protein A/G (Pierce) via NHS/EDC was used to capture approximately 600 RU of antibody on the chip surface. Five concentrations of PRLR ECD beginning at 5 ug/mL (185 nM) and serially diluted at 5× dilution to 0.3 nM were injected from lowest to highest concentration in the kinetic titration injection mode, and 15 minutes of dissociation data was collected. The experiments were double-referenced, i.e. an adjacent flow cell response was subtracted automatically, and the response from a buffer injection experiment was subtracted from the experimental data set. Kinetic and derived parameters (ka, kd and KD) were determined by fitting to a 1:1 Langmuir model using BiaEval software customized to the kinetic titration injection mode. Affinity measurements of both chimeric and all HUMAN ENGINEERED™ antibodies against human and cynomolgus PRLR ECD are summarized in Table 9 and Table 10.

human PRLR ECD = biological target: T2, human PRLR ECD (Homo sapiens, UniProt P16471); assay: as above; type: binding; conditions: Table 9, Human PRLR ECD; unit not given
T2 construct: His6 (C); made in house; host or cells: Tn5 insect cells, baculovirus
T2 sequence (P16471 25-234): T1 sequence (A0A2K5WXK1 25-234) with V76I, T110A, M125I, T158I, I207T
Procedure: as §1

Cyno PRLR = biological target: T3, Cyno PRLR (Macaca fascicularis, UniProt A0A2K5WXK1); assay: Cross species affinity analysis on covalently immobilized antibodies; type: binding, cynomolgus; conditions: Table 11, Cyno; covalently immobilized antibody; in 1/s
T3 construct: antibodies against human and cynomolgus PRLR ECD
T3 sequence (A0A2K5WXK1 25-234): T1 sequence (A0A2K5WXK1 25-234)
Procedure: (§2) In order to compare rat and mouse cross reactivity using covalently immobilized antibodies, a CM4 chip was coupled with he.06.642-2 and he.06.275-4 antibodies via standard EDC-NHS amine coupling chemistries according to the recommended protocol from BIACORE® Inc. The PRLR ECD injections were performed at five concentrations in a three fold titration series starting at 111 nM and going down to 1.37 nM. Regeneration was performed with Glycine pH3.0. The affinity of all of the HE variants of XHA.06.642 and XHA.06.275 are very similar to the affinity of the parental chimeric antibody. […] Antibody he.06.275-4 binds to Cyno PRLR with 5 fold weaker affinity than Human PRLR.

Human PRLR = biological target: T4, Human PRLR (Homo sapiens, UniProt P16471); assay: as above; type: binding; conditions: Table 11, Human; covalently immobilized antibody; in 1/s
T4 construct: His6 (C); made in house; host or cells: Tn5 insect cells, baculovirus
T4 sequence (P16471 25-234): T1 sequence (A0A2K5WXK1 25-234) with V76I, T110A, M125I, T158I, I207T
Procedure: as §2

Mouse PRLR = biological target: T5, Mouse PRLR (Mus musculus, UniProt Q08501); assay: as above; type: binding; conditions: for binding to Mouse PRLR (in words): compared with human PRLR
T5 sequence (Q08501 20-229 limits assumed): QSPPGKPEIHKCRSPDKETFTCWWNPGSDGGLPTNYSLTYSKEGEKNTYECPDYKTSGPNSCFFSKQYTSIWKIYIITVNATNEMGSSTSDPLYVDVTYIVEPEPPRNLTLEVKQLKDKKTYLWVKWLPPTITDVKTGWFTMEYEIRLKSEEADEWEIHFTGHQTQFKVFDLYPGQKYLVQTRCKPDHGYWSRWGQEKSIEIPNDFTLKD
Procedure: as §2

Rat PRLR = biological target: T6, Rat PRLR (Rattus norvegicus, UniProt P05710); assay: as above; type: binding; conditions: for binding to Rat PRLR (in words): compared with human PRLR
T6 sequence (P05710 20-229 limits assumed): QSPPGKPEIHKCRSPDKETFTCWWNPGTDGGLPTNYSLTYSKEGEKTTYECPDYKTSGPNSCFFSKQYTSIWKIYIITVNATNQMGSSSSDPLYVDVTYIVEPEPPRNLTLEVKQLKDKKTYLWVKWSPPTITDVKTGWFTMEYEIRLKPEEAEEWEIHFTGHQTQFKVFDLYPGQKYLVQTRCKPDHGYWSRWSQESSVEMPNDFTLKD
Procedure: as §2

[1] = system: PRL-induced phospho-PRLR and phospho-Stat5; assay: PRL-induced PRLR and STAT5 phosphorylation in T47D cells by Western blot; type: cell-based, human
Procedure: Cells were pre-treated with 1 ug/ml mAb prior to 30 min stimulation with 50 ng/ml PRL. Lysates were analyzed for the presence of phospho-PRLR using antibodies specific for phosphotyrosine residues 546 and 611 of the PRLR.
T47D cells were incubated with 1 or 10 ug/ml mAb, then treated with or without PRL (50 ng/ml) for an additional 30 min.
The ability of selected antibodies to inhibit PRL-induced phosphorylation of STAT5 and AKT was determined as follows. Cells were seeded overnight in 6 well plates at a density of 3×10^5 cells/ml in phenol red-free RPMI/10% FBS. The following day, media was replaced with serum-free RPMI for 30 min. In some experiments, anti-PRLR or non-specific control antibodies were incubated with cells during this serum starvation period. 50 ng/ml PRL was then added to wells for 30 min, after which cells were rinsed once in PBS and lysed in a buffer consisting of 50 mM Tris-HCl, pH7.5, 150 mM NaCl, 1 mM EDTA, 1% NP-40, 1 mM Na3OV4, 50 mM NaF, 0.25% deoxycholate and protease inhibitors. Tubes were spun down at 14,000 rpm in a refrigerated microfuge and lysates were quantitated using BCA reagents. 30 μg of whole cell lysate was separated by 10% SDS-PAGE and proteins were detected using phospho-specific antibodies for STAT5A/B (Y694/Y699, Upstate) or PRLR (Y546/Y611, in-house) and ECL. Equal protein loading was determined by staining with antibodies specific for total STAT5 (BD) or PRLR (Zymed) or AKT (Cell Signalling). Results of a representative assay of effect of a PRLR-specific antibody on PRLR intracellular phosphorylation are shown in FIG. 6.
Chimeric mAbs were analyzed for their ability to inhibit the proliferation and survival of BaF/PRLR cells [FIG. 11]. […] In order to assess the PRLR signal-neutralizing capability of the chimeric antibodies in a human breast cancer model, T47D cells were treated with 1 ug/ml mAb for 30 min prior to PRL stimulation. At the same time, additional cell samples were incubated with antibody alone to examine any potential agonism gained through chimerization of the antibody candidates.
Antibodies were assessed in target modulation and cell proliferation assays. FIG. 16 depicts the effect of 2 concentrations of chXHA.06.642 and HUMAN ENGINEERED™ antibodies he.06.642-1 and he.06.642-2, on PRL-induced Stat5 phosphorylation in T47D cells. […] Similar results were found for chXHA.06.275 variants.

[2] = Solubility in PBS and aggregation state by size exclusion chromatography; type: physicochemical
Procedure: Elution of the major peak was by […] glycine pH 3.5. Pooled material was dialyzed into PBS and concentrated in centrifugal concentrators with a nominal molecular weight cut-off of 30 kD. Final purities were >95% and overall yields were approximately 60%. The final pools were assayed for endotoxin using an Endosafe PTS LAL unit (Charles River) or the QCL-1000 Chromogenic LAL Endpoint Assay (Lonza), and the results were <0.05 EU/mg (below the limit of detection) for all the antibodies. Aggregation state of the chimeric antibody he.06.642-2 was determined to be monomeric by SEC on a Superdex 200 10/300 GL column (GE Healthcare).

ka (cynomolgus PRLR ECD): 3.6E+05
kd (cynomolgus PRLR ECD): 6.0E−04
ka (human PRLR ECD): 6.2E+05
kd (human PRLR ECD): 3.2E−04
koff (Cyno PRLR): 8.2E−04
koff (Human PRLR): 4.5E−04
Murine KD/Human KD (Mouse PRLR): Murine KD/Human KD = 13,548
binding to Mouse PRLR (in words) (Mouse PRLR): does not bind effectively
binding to Rat PRLR (in words) (Rat PRLR): does not bind effectively
B1: he.06.275-4: HUMAN-ENGINEERED antibody from XHA.06.275; variable regions SEQ ID NO: 92 and SEQ ID NO: 94 by order of listing (antibody, V domains shown)
VH: QVQLQESGPGLVKPSQTLSLTCTVSGYSITSDYAWNWIRQFPGKGLEWMGYISYSGSTSYNPSLKSRITISRDTSKNQFSLQLNSVTAADTAVYFCARDYGYVFDYWGQGTTLTVSS
VL: DVQITQSPSSLSASPGDRITLTCRASKNIYKYLAWYQEKPGKANKLLIYSGSTLHSGIPSRFSGSGSGTDFTLTISSLQPEDFAMYYCQQHNDYPYTFGQGTKLEIK

ka (cynomolgus PRLR ECD): 1.8E+05
kd (cynomolgus PRLR ECD): 8.3E−03
ka (human PRLR ECD): 1.7E+05
kd (human PRLR ECD): 5.3E−04
koff (Cyno PRLR): 6.0E−03
koff (Human PRLR): 9.1E−04
Murine KD/Human KD (Mouse PRLR): Murine KD/Human KD = 1
koff (Mouse PRLR; Table 11, Murin, covalently immobilized antibody, in 1/s): 3.1E−04
binding to Mouse PRLR (in words) (Mouse PRLR): equivalent affinity
Rat KD/Human KD (Rat PRLR): Rat KD/Human KD = 0.75
koff (Rat PRLR; Table 11, Rat, covalently immobilized antibody, in 1/s): 1.4E−04
binding to Rat PRLR (in words) (Rat PRLR): equivalent affinity
B2: he.06.642-2: HUMAN-ENGINEERED antibody from XHA.06.642; variable regions SEQ ID NO: 88 and SEQ ID NO: 90 by order of listing (antibody, V domains shown)
VH: EVQLVESGGGLVQPGGSLRLSCAVSGFTFSSYGMSWVRQAPGKGLEWVATVSSGGTYTYYPDSVKGRFTISRDNSKNTLYLQMNSLRAEDTAVYYCARHRGNYYATYYYAMDYWGQGTLVTVSS
VL: DIVLTQSPDSLAVSLGERATINCKASKSVSTSGYTYMHWYQQKPGQPPKLLIYLASNRESGVPDRFSGSGSGTDFTLTISPVQAEDVATYYCQHSGELPPSFGQGTKLEIK
agonism: induction of PRLR signaling by antibody alone ([1]; T47D cells treated with mAb alone): neither antibody displayed any agonistic activity
block of PRL-induced signaling (phospho-PRLR, phospho-Stat5) ([1]; T47D cells, 1 or 10 ug/ml mAb, then PRL 50 ng/ml 30 min): complete p-Stat5 signal abrogation
aggregation state by size exclusion chromatography [2]: monomeric
